# Source: patent US20230322924A1 (Janssen / Centocor, published 2023)
# B1: C3CB103 (bispecific antibody, IgG4, V domains shown)
# VH 1: QVQLVESGGGVVQPGRSLRLSCVASGFTFSSYGMHWVRQAPGKGLEWVAVISYDGSNKYYADSVKGRFTISRDNSKNTLYLQMNSLRAEGTAVYYCAKDFRSFDWLPPDSASYHGMDVWGQGTTVTVSS
# VL 1: SYELTQPPSVSVSPGQTASITCSGDKLGDKYACWYQQKPGQSPVLVIYQDGKRPSGIPERFSGSNFGNKATLTISGTQAMDEADYYCQAWDRNTVVFGGGTKLTVL
# VH 2: QVQLQQSGPRLVRPSQTLSLTCAISGDSVFNNNAAWSWIRQSPSRGLEWLGRTYYRSKWLYDYAVSVKSRITVNPDTSRNQFTLQLNSVTPEDTALYYCARGYSSSFDYWGQGTLVTVSS
# VL 2: QSALTQPASVSGSPGQSITISCTGTSSNIGTYKFVSWYQQHPDKAPKVLLYEVSKRPSGVSSRFSGSKSGNTASLTISGLQAEDQADYHCVSYAGSGTLLFGGGTKLTVL
# B2: C3CB97 (bispecific antibody, IgG4, V domains shown)
# VH 1: QVQLVQSGSELRKPGASVKVSCKASGYTFTNYAMNWVRQAPGQGLEWMGWINTNTGNPTYAQGFTGRFVFSLDTSVSSAYLQISSLKAEDTAMYYCATDRDRGTDYWGQGTLVTVSS
# VL 1: QSALTQPASVSGSPGQSITISCTGTSSDVGDYNYVSWYQQHPGKVPKLMIYDVSNRPSGVSNRFSGSMSGNTASLTISGLQAEDEADYYCSSYSSSSALEVFGGGTKLTVL
# VH 2: QVQLQQSGPRLVRPSQTLSLTCAISGDSVFNNNAAWSWIRQSPSRGLEWLGRTYYRSKWLYDYAVSVKSRITVNPDTSRNQFTLQLNSVTPEDTALYYCARGYSSSFDYWGQGTLVTVSS
# VL 2: QSALTQPASVSGSPGQSITISCTGTSSNIGTYKFVSWYQQHPDKAPKVLLYEVSKRPSGVSSRFSGSKSGNTASLTISGLQAEDQADYHCVSYAGSGTLLFGGGTKLTVL
# B3: C3CB102 (bispecific antibody, IgG4, V domains shown)
# VH 1: not shown
# VL 1: SYELTQPPSVSVSPGQTASITCSGNKLGAKFASWYQQKPGQSPVLVIYQDNKRPSGIPERFSGSNSGNTATLTISGTQAVDEADYYCQAWDSSTVVFGGGTKLTVL
# VH 2: QVQLQQSGPRLVRPSQTLSLTCAISGDSVFNNNAAWSWIRQSPSRGLEWLGRTYYRSKWLYDYAVSVKSRITVNPDTSRNQFTLQLNSVTPEDTALYYCARGYSSSFDYWGQGTLVTVSS
# VL 2: QSALTQPASVSGSPGQSITISCTGTSSNIGTYKFVSWYQQHPDKAPKVLLYEVSKRPSGVSSRFSGSKSGNTASLTISGLQAEDQADYHCVSYAGSGTLLFGGGTKLTVL
# Molecular target: Human CD33 full length (human, UniProt P20138 18-364)
# Sequence (P20138 18-364 limits assumed): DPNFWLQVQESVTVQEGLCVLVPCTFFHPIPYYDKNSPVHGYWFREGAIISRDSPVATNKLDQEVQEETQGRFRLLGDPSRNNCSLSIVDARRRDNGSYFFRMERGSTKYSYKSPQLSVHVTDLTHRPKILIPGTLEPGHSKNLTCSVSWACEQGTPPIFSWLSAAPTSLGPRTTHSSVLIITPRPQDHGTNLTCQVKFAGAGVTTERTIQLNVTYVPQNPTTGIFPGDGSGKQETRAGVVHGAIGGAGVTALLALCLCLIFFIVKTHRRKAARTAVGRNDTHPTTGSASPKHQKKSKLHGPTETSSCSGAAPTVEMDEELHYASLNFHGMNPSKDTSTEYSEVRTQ
# Experiment: cell-based or functional assay
row,Binder,Primary AML Cell Killing EC50 [nM]
1,B1,4.19
2,B2,~0.232
3,B3,4.97
